Test results: article PMC5531472, “A single nucleotide polymorphism causes enhanced radical oxygen species production by human aldehyde oxidase” (PLoS ONE, 2017)
Positions count from the first letter of the chain named. In names and notes the source's numbering stands.

B1: human aldehyde oxidase 1 variant G46E (enzyme)
chain: MDRASELLFYVNGRKVIEKNVDPETMLLPYLRKKLRLTGTKYGCGEGGCGACTVMISRYNPITKRIRHHPANACLIPICSLYGAAVTTVEGIGSTHTRIHPVQERIAKCHGTQCGFCTPGMVMSIYTLLRNHPEPTLDQLTDALGGNLCRCTGYRPIIDACKTFCKTSGCCQSKENGVCCLDQGINGLPEFEEGSKTSPKLFAEEEFLPLDPTQELIFPPELMIMAEKQSQRTRVFGSERMMWFSPVTLKELLEFKFKYPQAPVIMGNTSVGPEVKFKGVFHPVIISPDRIEELSVVNHAYNGLTLGAGLSLAQVKDILADVVQKLPEEKTQMYHALLKHLGTLAGSQIRNMASLGGHIISRHPDSDLNPILAVGNCTLNLLSKEGKRQIPLNEQFLSKCPNADLKPQEILVSVNIPYSRKWEFVSAFRQAQRQENALAIVNSGMRVFFGEGDGIIRELCISYGGVGPATICAKNSCQKLIGRHWNEQMLDIACRLILNEVSLLGSAPGGKVEFKRTLIISFLFKFYLEVSQILKKMDPVHYPSLADKYESALEDLHSKHHCSTLKYQNIGPKQHPEDPIGHPIMHLSGVKHATGEAIYCDDMPLVDQELFLTFVTSSRAHAKIVSIDLSEALSMPGVVDIMTAEHLSDVNSFCFFTEAEKFLATDKVFCVGQLVCAVLADSEVQAKRAAKRVKIVYQDLEPLILTIEESIQHNSSFKPERKLEYGNVDEAFKVVDQILEGEIHMGGQEHFYMETQSMLVVPKGEDQEMDVYVSTQFPKYIQDIVASTLKLPANKVMCHVRRVGGAFGGKVLKTGIIAAVTAFAANKHGRAVRCVLERGEDMLITGGRHPYLGKYKAGFMNDGRILALDMEHYSNAGASLDESLFVIEMGLLKMDNAYKFPNLRCRGWACRTNLPSNTAFRGFGFPQAALITESCITEVAAKCGLSPEKVRIINMYKEIDQTPYKQEINAKNLIQCWRECMAMSSYSLRKVAVEKFNAENYWKKKGLAMVPLKFPVGLGSRAAGQAAALVHIYLDGSVLVTHGGIEMGQGVHTKMIQVVSRELRMPMSNVHLRGTSTETVPNANISGGSVVADLNGLAVKDACQTLLKRLEPIISKNPKGTWKDWAQTAFDESINLSAVGYFRGYESDMNWEKGEGQPFEYFVYGAACSEVEIDCLTGDHKNIRTDIVMDVGCSINPAIDIGQIEGAFIQGMGLYTIEELNYSPQGILHTRGPDQYKIPAICDMPTELHIALLPPSQNSNTLYSSKGLGESGVFLGCSVFFAIHDAVSAARQERGLHGPLTLNSPLTPEKIRMACEDKFTKMIPRDEPGSYVPWNVPI
notes: human aldehyde oxidase 1 (hAOX1), protein of 1338 amino acids, SNP-based variant G46E; construct pAF4 derived from pTHcohAOX1; also called hAOX1 G46E; pAF4; source: E. coli TP1000 (ΔmobAB), purified (nickel-nitrilotriacetic acid resin, size exclusion chromatography)
B2: human aldehyde oxidase 1 variant K1237N (enzyme)
chain: B1 chain with E46G, K1237N
notes: human aldehyde oxidase 1 (hAOX1), protein of 1338 amino acids, SNP-based variant K1237N; construct pAF13 derived from pTHcohAOX1; also called hAOX1 K1237N; pAF13; source: E. coli TP1000 (ΔmobAB), purified (nickel-nitrilotriacetic acid resin, size exclusion chromatography)
B3: human aldehyde oxidase 1 variant G50D (enzyme)
chain: B1 chain with E46G, G50D
notes: human aldehyde oxidase 1 (hAOX1), protein of 1338 amino acids, SNP-based variant G50D; construct pAF5 derived from pTHcohAOX1; purified with a 10-fold lower yield than the other variants; also called hAOX1 G50D; hAOX1-G50D; source: E. coli TP1000 (ΔmobAB), purified (nickel-nitrilotriacetic acid resin, size exclusion chromatography)
B4: human aldehyde oxidase 1 variant G346R (enzyme)
chain: B1 chain with E46G, G346R
notes: human aldehyde oxidase 1 (hAOX1), protein of 1338 amino acids, SNP-based variant G346R; construct pAF6 derived from pTHcohAOX1; also called hAOX1 G346R; pAF6; source: E. coli TP1000 (ΔmobAB), purified (nickel-nitrilotriacetic acid resin, size exclusion chromatography)
B5: human aldehyde oxidase 1 variant H363Q (enzyme)
chain: B1 chain with E46G, H363Q
notes: human aldehyde oxidase 1 (hAOX1), protein of 1338 amino acids, SNP-based variant H363Q; construct pAF7 derived from pTHcohAOX1; also called hAOX1 H363Q; pAF7; source: E. coli TP1000 (ΔmobAB), purified (nickel-nitrilotriacetic acid resin, size exclusion chromatography)
B6: human aldehyde oxidase 1 variant R433P (enzyme)
chain: B1 chain with E46G, R433P
notes: human aldehyde oxidase 1 (hAOX1), protein of 1338 amino acids, SNP-based variant R433P; construct pAF8 derived from pTHcohAOX1; also called hAOX1 R433P; pAF8; source: E. coli TP1000 (ΔmobAB), purified (nickel-nitrilotriacetic acid resin, size exclusion chromatography)
B7: human aldehyde oxidase 1 variant A437V (enzyme)
chain: B1 chain with E46G, A437V
notes: human aldehyde oxidase 1 (hAOX1), protein of 1338 amino acids, SNP-based variant A437V; construct pAF9 derived from pTHcohAOX1; also called hAOX1 A437V; pAF9; source: E. coli TP1000 (ΔmobAB), purified (nickel-nitrilotriacetic acid resin, size exclusion chromatography)
B8: human aldehyde oxidase 1 variant L438V (enzyme)
chain: B1 chain with E46G, L438V
notes: human aldehyde oxidase 1 (hAOX1), protein of 1338 amino acids, SNP-based variant L438V; construct pAF10 derived from pTHcohAOX1; also called hAOX1 L438V; hAOX1-L438V; source: E. coli TP1000 (ΔmobAB), purified (nickel-nitrilotriacetic acid resin, size exclusion chromatography)
B9: human aldehyde oxidase 1 variant A439E (enzyme)
chain: B1 chain with E46G, A439E
notes: human aldehyde oxidase 1 (hAOX1), protein of 1338 amino acids, SNP-based variant A439E; construct pAF11 derived from pTHcohAOX1; also called hAOX1 A439E; pAF11; source: E. coli TP1000 (ΔmobAB), purified (nickel-nitrilotriacetic acid resin, size exclusion chromatography)
B10: human aldehyde oxidase 1 variant R1231H (enzyme)
chain: B1 chain with E46G, R1231H
notes: human aldehyde oxidase 1 (hAOX1), protein of 1338 amino acids, SNP-based variant R1231H; construct pAF12 derived from pTHcohAOX1; also called hAOX1 R1231H; pAF12; source: E. coli TP1000 (ΔmobAB), purified (nickel-nitrilotriacetic acid resin, size exclusion chromatography)

Biological target: the molecule itself
Test: SEC; size exclusion chromatography on a Superdex 200 10/300 GL column after nickel-NTA purification; data not shown

Protein | stoichiometry N
B1 | 2
B2 | 2
B3 | 2
B4 | 2
B5 | 2
B6 | 2
B7 | 2
B8 | 2
B9 | 2
B10 | 2
